Data reported in patent US20170204167A1.

How the values were obtained:
[1] = biological target: HA of B/Ohio/1/05 (influenza B virus B/Ohio/1/05); test: ELISA on HA
[2] = biological target: HA of H3N2 A/Brisbane/10/07 (influenza A virus H3N2 A/Brisbane/10/07); test: ELISA on HA
[3] = biological target: HA of H3N2 A/New York/55/04 (influenza A virus H3N2 A/New York/55/04); test: ELISA on recombinant or purified HA
[4] = biological target: HA of H3N2 A/Wyoming/3/03 (influenza A virus H3N2 A/Wyoming/3/03); test: ELISA on recombinant or purified HA
[5] = biological target: HA of H3N2 A/Brisbane/10/07 (influenza A virus H3N2 A/Brisbane/10/07); test: ELISA on recombinant or purified HA
[6] = biological target: HA of H1N1 A/Brisbane/59/07 (influenza A virus H1N1 A/Brisbane/59/07); test: ELISA on recombinant or purified HA

B1: FI6 variant 2 (antibody, V domains shown)
VH: QVQLVQSGGGVVQPGRSLRLSCVASGFTFSTYAMHWVRQAPGRGLEWVAVISYDGNYKYYADSVKGRFSISRDNSNNTLHLEMNTLRTEDTALYYCAKDSQLRSLLYFEWLSQGYFDPWGQGTLVTVTS
VL: DIQMTQSPDSLAVSLGARATINCKSSQSVTFNYKNYLAWYQQKPGQPPKVLIYWASARESGVPDRFSGSGSGTDFTLTISSLQAEDVAVYYCQQHYRTPPTFGQGTKVEIK
[1]
  EC50: > 20 µg/mL
[2]
  Binding to HA by ELISA (% of subtype specific control antibodies): 68.5%
[3]
  EC50: 0.032 µg/mL
[4]
  EC50: 0.019 µg/mL
[5]
  EC50: 0.041 µg/mL
[6]
  EC50: 0.015 µg/mL

B2: FI28 variant 1 (antibody, V domains shown)
VH: EVQLVESGGGAVQPGESLKLSCAASGFTFSNYGMHWVRQAPGKGLEWVAVISYDGSNKYYADSVKGRFTISRDNSKDTLYLQMNSLRAEDTALFYCAKERPLRLLRYFDWLSGGANDYWGQGTLVTVSS
VL: DIVMTQSPDSLAVSLGERATINCKSSQSVLYSSNNKNYLAWYQQKPGQPPKLLIDWASTRESGVPDRFSGSGSGTDFTLTISNLQVEDVAVYYCQQYYRSPSFGQGTKLEIK
[2]
  Binding to HA by ELISA (% of subtype specific control antibodies): 1.3%
